One sequence from paper PMC7525159 can be followed below.

The target in this data set is T1, RegX3 (K204A) K204A (UniProt P9WGL9).
T1 sequence: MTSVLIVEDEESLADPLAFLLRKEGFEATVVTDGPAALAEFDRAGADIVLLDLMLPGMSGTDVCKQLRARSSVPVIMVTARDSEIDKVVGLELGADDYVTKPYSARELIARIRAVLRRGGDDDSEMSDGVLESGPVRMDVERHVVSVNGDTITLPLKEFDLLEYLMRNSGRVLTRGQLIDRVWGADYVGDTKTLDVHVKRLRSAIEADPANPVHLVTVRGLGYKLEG
Description: EMSA.

For the sequence “CAGCTTTCTTTGCGCTAATTTAGGCGTACTCACAGCATGGGATGACCTGGGCAAATACCTCATCTATCCGCCCGGGATAGCATGCGGCGCAGGCGGCGAATGCGGCGCAGATGAACGCAGAGTTAATTCTCACGCAACGGTCCGATATTG (double strand) [whiB3 promoter -307 to -157 (WT)]”, the binding entry is reported as “no binding”.
